Data as given in article PMC9049628.

Substrate: NCCCC[C@H](N)C(=O)O
Assay: purified protein
Conditions: 5 mM acetyl-CoA, 50 mM Tris-HCl pH 10.0, 40 °C, 0.65 mM DTNB

B1: ShKAT (Salinicoccus halodurans) (protein)
chain: MWQTKKFNELSLSEIEQIFRLRQSIFIIEQQSYFADIDGKDTEAIHIFNKENNIIWAYCRILIYDEKVILGRVTVHSDKRGNGNGRELLNTALKYLKENYPDKFVQIVAMSYLKDFYKSYGFKSISEVYIMDDHPHEDMILKH
Km: 1890 µM
